Test results from the Human Domainome abundance scans (Beltran et al. 2025).
± gives the uncertainty stated by the source.

B1: Ankyrin-1, residues 1405 to 1484; numbered along this chain, P16157 (parent)
chain: MKMAVISEHLGLSWAELARELQFSVEDINRIRVENPNSLLEQSVALLNLWVIREGQNANMENLYTALQSIDRGEIVNMLE

Variants of: B1
Assay: abundance fitness (aPCA) (normalised: wild type 0, dead -1); higher = more abundant; growth selection in yeast, the domain comes from the species named
Conditions: Homo sapiens

For MKMAVISEHLGLSWAELARELQFSVEDINRIRVENPNSLLEQSVALLNLWVIREGQNANMENVYTALQSIDRGEIVNMLE [L63V], which abundance fitness is on record?
Its abundance fitness is -0.136 ± 0.042.

Which abundance fitness does the source give for MKMAVISEHLGLSWAELARELQFSVEDINRIRVENPNSLLEQSVALLNLWVIREGQNANMENLYTALQWIDRGEIVNMLE [S69W] here?
Its abundance fitness is -0.291 ± 0.08.

Which abundance fitness does the source give for MKMAVISEWLGLSWAELARELQFSVEDINRIRVENPNSLLEQSVALLNLWVIREGQNANMENLYTALQSIDRGEIVNMLE [H9W] here?
Its abundance fitness is -0.251 ± 0.096.

Which abundance fitness does the source give for MKMAVISEHLGLTWAELARELQFSVEDINRIRVENPNSLLEQSVALLNLWVIREGQNANMENLYTALQSIDRGEIVNMLE [S13T] here?
Its abundance fitness is -0.472 ± 0.18.

Which abundance fitness does the source give for MKMAVISEHLGLDWAELARELQFSVEDINRIRVENPNSLLEQSVALLNLWVIREGQNANMENLYTALQSIDRGEIVNMLE [S13D] here?
Its abundance fitness is 0.155 ± 0.089.

For MKMAVISEHLGLPWAELARELQFSVEDINRIRVENPNSLLEQSVALLNLWVIREGQNANMENLYTALQSIDRGEIVNMLE [S13P], which abundance fitness is on record?
The abundance fitness was -0.863 ± 0.39.

Which abundance fitness does the source give for MKMAVISEHLGLSWAELARELQFSVEDINRIRVENPNSLLEQSVALLNLWVIREGQNANMENLYTALQSIDRIEIVNMLE [G73I] here?
Its abundance fitness is -0.486 ± 0.13.

For MKMAVISEHLGLSWAELARELQFSVEDINRIRVENPNSLLEQSVALLNLWVIREGQNANMENLYTALQSIDRKEIVNMLE [G73K], which abundance fitness is on record?
The abundance fitness was -0.289 ± 0.079.

For MKMAVISEHLGLSWAELARELQFSVEDINRIRVENPNSLLEQSVALLNLWVIREGQNANMENLYTALQSIDRPEIVNMLE [G73P], which abundance fitness is on record?
Its abundance fitness is -0.205 ± 0.058.

Which abundance fitness does the source give for MKMAVISEHLGLSWAELARELQFSVEDINRIRVENPNSLLEQSVALLNLWVIREGQNANMENLYTALQSIDRREIVNMLE [G73R] here?
Its abundance fitness is -0.297 ± 0.04.

With MKMAVISEHLGLSWAELARELQFSVEDINRIRVENPNSLLAQSVALLNLWVIREGQNANMENLYTALQSIDRGEIVNMLE [E41A] as the variant, how does the abundance fitness read?
The abundance fitness was -0.113 ± 0.057.

For MKMAVISEHLGLSWAELARELQFSVEDINRIRVVNPNSLLEQSVALLNLWVIREGQNANMENLYTALQSIDRGEIVNMLE [E34V], which abundance fitness is on record?
Its abundance fitness is -0.308 ± 0.099.

With MKMAVISEHLGLSWAELARELQFSVEDINRIRVRNPNSLLEQSVALLNLWVIREGQNANMENLYTALQSIDRGEIVNMLE [E34R] as the variant, how does the abundance fitness read?
The abundance fitness was -0.204 ± 0.12.

With MKMAVISEHLGLSWAELARELQFSVEDINRIRVENPNSLLEQSVALLNLWVIREGQNANMENLYTALHSIDRGEIVNMLE [Q68H] as the variant, how does the abundance fitness read?
Its abundance fitness is -0.029 ± 0.24.

For MKMAVISEHLGLSWAELAYELQFSVEDINRIRVENPNSLLEQSVALLNLWVIREGQNANMENLYTALQSIDRGEIVNMLE [R19Y], which abundance fitness is on record?
Its abundance fitness is -0.434 ± 0.17.

Which abundance fitness does the source give for MDMAVISEHLGLSWAELARELQFSVEDINRIRVENPNSLLEQSVALLNLWVIREGQNANMENLYTALQSIDRGEIVNMLE [K2D] here?
Its abundance fitness is -0.542 ± 0.14.

Which abundance fitness does the source give for MIMAVISEHLGLSWAELARELQFSVEDINRIRVENPNSLLEQSVALLNLWVIREGQNANMENLYTALQSIDRGEIVNMLE [K2I] here?
The abundance fitness was -0.003 ± 0.096.

Which abundance fitness does the source give for MKMAVISEHLGLSWAELARELQFWVEDINRIRVENPNSLLEQSVALLNLWVIREGQNANMENLYTALQSIDRGEIVNMLE [S24W] here?
The abundance fitness was -0.925 ± 0.25.

With MKMAVISEHLGLSWAELARELQFSVEDINRIRVENPNSLLEQSVALLNLWVIREGQNAKMENLYTALQSIDRGEIVNMLE [N59K] as the variant, how does the abundance fitness read?
Its abundance fitness is -0.02 ± 0.19.

For MKMAVISEHLGLSWAELARELQFSVEDINRIRVENPNSLLEQSVALLNLWVIREGQNANMENLYTALQSIDRGEIVNWLE [M78W], which abundance fitness is on record?
Its abundance fitness is -0.19 ± 0.075.

With MKMAVISEHLGLSWAELFRELQFSVEDINRIRVENPNSLLEQSVALLNLWVIREGQNANMENLYTALQSIDRGEIVNMLE [A18F] as the variant, how does the abundance fitness read?
Its abundance fitness is -0.872 ± 0.28.

For MKMQVISEHLGLSWAELARELQFSVEDINRIRVENPNSLLEQSVALLNLWVIREGQNANMENLYTALQSIDRGEIVNMLE [A4Q], which abundance fitness is on record?
Its abundance fitness is -0.041 ± 0.11.

With MKMAVISEHLGLSWAELARELQFSVEDINRIRVENPNSLLEQSVALLNLWVIREGQNANMENLYTVLQSIDRGEIVNMLE [A66V] as the variant, how does the abundance fitness read?
Its abundance fitness is -0.749 ± 0.097.

Which abundance fitness does the source give for MKMAVISEHLGLSWAELARELQFSVEDINRIRVENPNSLLEQSVALLNLWVIREGQNANMENLYTNLQSIDRGEIVNMLE [A66N] here?
Its abundance fitness is -0.562 ± 0.19.

With MKMAVISEHLGLSWAELARELKFSVEDINRIRVENPNSLLEQSVALLNLWVIREGQNANMENLYTALQSIDRGEIVNMLE [Q22K] as the variant, how does the abundance fitness read?
The abundance fitness was 0.011 ± 0.08.

With MKMAVISEHLGLSWAELARELWFSVEDINRIRVENPNSLLEQSVALLNLWVIREGQNANMENLYTALQSIDRGEIVNMLE [Q22W] as the variant, how does the abundance fitness read?
The abundance fitness was -0.506 ± 0.088.

Which abundance fitness does the source give for MKMAVISEHLGLSWAELARELQFSVEDINRIRVENPNSLLEQSVALLNLWVIREGQNANMEDLYTALQSIDRGEIVNMLE [N62D] here?
The abundance fitness was 0.109 ± 0.11.

For MKMAVISEHLGLSWAELARELQFSVEDINRIRVENPNSLLEQSVALLNLWVIREGQNANMECLYTALQSIDRGEIVNMLE [N62C], which abundance fitness is on record?
The abundance fitness was -0.126 ± 0.11.

With MKMAVISEHLGLSWAELARELQFSVEDINRIRVENPNSLLEQSVALLNLWVIREGQNANMEVLYTALQSIDRGEIVNMLE [N62V] as the variant, how does the abundance fitness read?
The abundance fitness was 0.071 ± 0.065.

For MKMAVISEHLGLSWAELARELQFSVEVINRIRVENPNSLLEQSVALLNLWVIREGQNANMENLYTALQSIDRGEIVNMLE [D27V], which abundance fitness is on record?
Its abundance fitness is -0.089 ± 0.058.

For MKMAVISEHLGLSWAELARELQFSVEDINRIRVENPNSLLEQSVALLNLWVIREGQNANMENLYTALQSIDGGEIVNMLE [R72G], which abundance fitness is on record?
The abundance fitness was -0.499 ± 0.065.

Which abundance fitness does the source give for MKMAVISEHLGLSWAELARELQFSVEDIYRIRVENPNSLLEQSVALLNLWVIREGQNANMENLYTALQSIDRGEIVNMLE [N29Y] here?
Its abundance fitness is -0.484 ± 0.16.

For MKMAVISEHLGLSWAELARELQFSVEDINRIRVENPNSLLEQSVALLNLWVIREGQNANMENLYTALQSLDRGEIVNMLE [I70L], which abundance fitness is on record?
Its abundance fitness is -0.762 ± 0.1.

Which abundance fitness does the source give for MKMAVISEHLGLSWAELARELQFSVEDINRIRVENPNSLLEQSVALLNLWVIREGVNANMENLYTALQSIDRGEIVNMLE [Q56V] here?
The abundance fitness was 0.07 ± 0.065.
